# Substitutions are numbered along the chain they refer to.
# B1: XENP37821 TBRII-A_H1.274_L1 (antibody, V domains shown)
# VH: QLQVQESGPGLVKPSETLSLTCTVSGGSISNAYFSWGWIRQPPGKGLEWIGSFNYGGKTYYNPSLKSRATISIDTSKNQFSLKLSSVTAADTAVYYCARGPTLIRGVIDSWGQGTLVTVSS
# VL: EIVLTQSPATLSLSPGERATLSCRASQSVRSYLAWYQQKPGQAPRLLIYDASNRATGIPARFSGSGSGTDFTLTISSLEPEDFAVYYCQQRSNWPPTFGQGTKVEIK
# B2: TBRII-A_H1.51_L1 (antibody, V domains shown)
# VH: B1 VH with A32S, G57E, N78S, A98P, L103M
# VL: B1 VL
# B3: TBRII-A_H1.1_L1 (antibody, V domains shown)
# VH: B1 VH with A32S, N54Y, G57E, N78S, A98P, L103V
# VL: B1 VL
# B4: XENP37815 TBRII-A_H1.271_L1.53 (antibody, V domains shown)
# VH: B1 VH with N31S, A32S, G37H, N54Y
# VL: B1 VL with W94Y
# B5: XENP37822 TBRII-A_H1.201_L1.53 (antibody, V domains shown)
# VH: B1 VH with N54Y
# VL: B1 VL with W94Y
# B6: XENP37819 TBRII-A_H1.273_L1.53 (antibody, V domains shown)
# VH: B1 VH with N31S, A32S, G37H, N54Y, L103T
# VL: B1 VL with W94Y
# B7: XENP37814 TBRII-A_H1.189_L1.53 (antibody, V domains shown)
# VH: B1 VH with N31S, A32S, N54Y
# VL: B1 VL with W94Y
# B8: TBRII-A_H1.29_L1 (antibody, V domains shown)
# VH: B1 VH with A32S, S35T, N54Y, G57E, N78S, A98P, L103M
# VL: B1 VL
# B9: XENP37817 TBRII-A_H1.272_L1 (antibody, V domains shown)
# VH: B1 VH with N31S, A32S, L103T
# VL: B1 VL
# B10: XENP37813 TBRII-A_H1.270_L1 (antibody, V domains shown)
# VH: B1 VH with N31S, A32S
# VL: B1 VL
# B11: TBRII-A_H1.30_L1 (antibody, V domains shown)
# VH: B1 VH with A32S, S35Y, N54Y, G57E, N78S, A98P, L103M
# VL: B1 VL
# B12: TBRII-A_H1.36_L1 (antibody, V domains shown)
# VH: B1 VH with A32S, G37S, N54Y, G57E, N78S, A98P, L103M
# VL: B1 VL
# B13: XENP37818 TBRII-A_H1.190_L1.53 (antibody, V domains shown)
# VH: B1 VH with N31S, A32S, N54Y, L103T
# VL: B1 VL with W94Y
# B14: H1 L1.6 XENP34569 (antibody, V domains shown)
# VH: B1 VH with A32S, N54Y, G57E, N78S, A98P, L103M
# VL: B1 VL with R24G
# B15: H1 L1.2 XENP34565 (antibody, V domains shown)
# VH: B1 VH with A32S, N54Y, G57E, N78S, A98P, L103M
# VL: B1 VL with A9G
# B16: XENP36169 H1.186 L1 (antibody, V domains shown)
# VH: B1 VH with N31E, A32S, N54Y, L103T
# VL: B1 VL
# B17: XENP36184 H1.201 L1 (antibody, V domains shown)
# VH: B1 VH with N54Y
# VL: B1 VL
# B18: XENP36167 H1.184 L1 (antibody, V domains shown)
# VH: B1 VH with N31E, A32S, N54Y, L103M
# VL: B1 VL
# B19: XENP35107 H1.36 L1 (antibody, V domains shown)
# VH: B1 VH with A32S, G37S, N54Y, G57E, N78S, A98P, L103M
# VL: B1 VL
# B20: XENP36175 H1.192 L1 (antibody, V domains shown)
# VH: B1 VH with N31T, A32S, N54Y, L103M
# VL: B1 VL
# B21: XENP36170 H1.187 L1 (antibody, V domains shown)
# VH: B1 VH with N31E, A32S, N54Y, L103V
# VL: B1 VL
# B22: XENP36185 H1.202 L1 (antibody, V domains shown)
# VH: B1 VH with N54Y, L103T
# VL: B1 VL
# B23: XENP36164 H1.181 L1 (antibody, V domains shown)
# VH: B1 VH with A32S, N54Y, L103M
# VL: B1 VL
# B24: XENP36177 H1.194 L1 (antibody, V domains shown)
# VH: B1 VH with N31T, A32S, N54Y, L103T
# VL: B1 VL
# B25: XENP36183 H1.200 L1 (antibody, V domains shown)
# VH: B1 VH with N54Y, L103M
# VL: B1 VL
# B26: XENP35104 H1.29 L1 (antibody, V domains shown)
# VH: B1 VH with A32S, S35T, N54Y, G57E, N78S, A98P, L103M
# VL: B1 VL
# B27: XENP36176 H1.193 L1 (antibody, V domains shown)
# VH: B1 VH with N31T, A32S, N54Y
# VL: B1 VL
# B28: XENP36179 H1.196 L1 (antibody, V domains shown)
# VH: B1 VH with N31Q, A32S, N54Y, L103M
# VL: B1 VL
# B29: XENP34288 H1.1 L1 (antibody, V domains shown)
# VH: B1 VH with A32S, N54Y, G57E, N78S, A98P, L103V
# VL: B1 VL
# B30: XENP36171 H1.188 L1 (antibody, V domains shown)
# VH: B1 VH with N31S, A32S, N54Y, L103M
# VL: B1 VL
# B31: XENP36173 H1.190 L1 (antibody, V domains shown)
# VH: B1 VH with N31S, A32S, N54Y, L103T
# VL: B1 VL
# B32: XENP35105 H1.30 L1 (antibody, V domains shown)
# VH: B1 VH with A32S, S35Y, N54Y, G57E, N78S, A98P, L103M
# VL: B1 VL
# B33: XENP36186 H1.203 L1 (antibody, V domains shown)
# VH: B1 VH with N54Y, L103V
# VL: B1 VL
# B34: XENP36172 H1.189 L1 (antibody, V domains shown)
# VH: B1 VH with N31S, A32S, N54Y
# VL: B1 VL
# B35: XENP36178 H1.195 L1 (antibody, V domains shown)
# VH: B1 VH with N31T, A32S, N54Y, L103V
# VL: B1 VL
# B36: XENP36168 H1.185 L1 (antibody, V domains shown)
# VH: B1 VH with N31E, A32S, N54Y
# VL: B1 VL
# B37: XENP36166 H1.183 L1 (antibody, V domains shown)
# VH: B1 VH with A32S, N54Y, L103M, I108F
# VL: B1 VL
# B38: XENP36174 H1.191 L1 (antibody, V domains shown)
# VH: B1 VH with N31S, A32S, N54Y, L103V
# VL: B1 VL
# B39: XENP36182 H1.199 L1 (antibody, V domains shown)
# VH: B1 VH with N31Q, A32S, N54Y, L103V
# VL: B1 VL
# B40: XENP36181 H1.198 L1 (antibody, V domains shown)
# VH: B1 VH with N31Q, A32S, N54Y, L103T
# VL: B1 VL
# B41: XENP36180 H1.197 L1 (antibody, V domains shown)
# VH: B1 VH with N31Q, A32S, N54Y
# VL: B1 VL
# B42: XENP34306 H1.1 L1 (antibody, V domains shown)
# VH: B1 VH with A32S, N54Y, G57E, N78S, A98P, L103V
# VL: B1 VL
# B43: XENP35121 H1.30 L1 (antibody, V domains shown)
# VH: B1 VH with A32S, S35Y, N54Y, G57E, N78S, A98P, L103M
# VL: B1 VL
# B44: XENP35126 H1.56 L1 (antibody, V domains shown)
# VH: B1 VH with A32S, N54Y, N78S, A98P, L103M
# VL: B1 VL
# B45: XENP35125 H1.51 L1 (antibody, V domains shown)
# VH: B1 VH with A32S, G57E, N78S, A98P, L103M
# VL: B1 VL
# B46: XENP35124 H1.37 L1 (antibody, V domains shown)
# VH: B1 VH with A32S, I39V, N54Y, G57E, N78S, A98P, L103M
# VL: B1 VL
# Molecular target: T1, human TGFßRII (antigen of the Octet experiments) (human, UniProt P37173 23-166)
# T1 sequence (P37173 23-166): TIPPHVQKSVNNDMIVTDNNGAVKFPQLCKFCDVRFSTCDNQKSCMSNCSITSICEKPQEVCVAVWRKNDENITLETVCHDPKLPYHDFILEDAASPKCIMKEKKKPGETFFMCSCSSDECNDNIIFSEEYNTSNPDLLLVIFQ
# Assay: not given
row,Binder,Kd [nM]
1,B1,16.8
2,B2,53
3,B3,2.1
4,B4,411
5,B5,46.6
6,B6,7.7
7,B7,58.9
8,B8,4.2
9,B9,58.2
10,B10,31.6
11,B11,14
12,B12,3.5
13,B13,109

# Molecular target: T1, human TGFßRII (antigen of the Octet …)
# Assay: BLI (Octet)
row,Binder,Kd [nM]
1,B14,2.24
2,B15,0.361

# Molecular target: T1, human TGFßRII (antigen of the Octet …)
# Assay: not given
# Remark: another data set of the same source
row,Binder,Kd [nM]
1,B16,10.1
2,B17,5.27
3,B18,4.34
4,B19,2.89
5,B20,4.38
6,B21,9.08
7,B22,7.4
8,B23,2.29
9,B24,9.77
10,B25,3.02
11,B26,2.43
12,B27,7.15
13,B28,3.69
14,B29,4.26
15,B30,4.19
16,B31,9.24
17,B32,15.4
18,B33,6.44
19,B34,6.99
20,B35,8.42
21,B36,7.26
22,B37,6.15
23,B38,8.43
24,B39,7.43
25,B40,8.4
26,B41,6.07

# Molecular target: T1, human TGFßRII (antigen of the Octet …)
# Assay: Octet
row,Binder,Kd [nM]
1,B42,4.02
2,B43,10.3
3,B44,3.36
4,B45,23
5,B46,2.63
